Data taken from patent publication US20190315842A1.
Where a chain is given by its changes, count along the chain named.

B1: Ab7960/293i (antibody, IgG1, V domains shown)
VH: LVESGGGVVQPGKSLRLSCVASGFSFSTYGMHWVRQAPGKGLEWVAVMSFDGKTKYYADSVKGRFTISRDNPKNTLYLQMNSLRSEDTAVYYCAKGGAAAAVFDSWGPGILLTVSS
VL: MTQSPNSLAVSLGGRATINCKASQSILYRSNNKNYLAWYQHKAGQPPKLLIYWASTRESGVPERFSGSGSRTDFTLTINGLQAEDVAVYYCQQYYNPPWTFGQGTKVEIK
B2: Ab7979 (antibody, IgG1, V domains shown)
VH: B1 VH with S25T, P108Q
VL: B1 VL with A22T, A43P, G60R, E63D, N79S
B3: Ab7961/293i (antibody, IgG1, V domains shown)
VH: B1 VH with S25T, T28S, P108Q
VL: B1 VL with A22T, A43S, E63D, N79S
B4: Ab7957/293i (antibody, IgG1, V domains shown)
VH: LVESGGGVVPPGKSLRLSCAASGFTFSLYGIHWVRQAPGKGLEWVAVISYDGNTKYYTDSVKGRFTISRDNAKNTIYLQMNSLRLDDTAVYYCAKGAANSATFDFWGRGTMVTVSS
VL: MTQSPDSLTLSLGERATINCRSSRTVLYRSNNKNYLAWYQHKPGQPPKLLMSWASTRETGVPDRFSGSGSGTHFTLTITSLQPEDVAVYYCQQYYSPPWTFGQGTKVEIR
B5: Ab7970 (antibody, IgG1, V domains shown)
VH: LVESGGGVVQPGRSLRLSCAASGLTFSFYNFHWVRQTPGKGLEWVAGISYDATRTNYAGSVTGRFTISRDNSKKMLYLQMSSLGPQDTAVYHCARDRSDGQLHKVAFDSWGQGALVTVSS
VL: B4 VL
B6: Ab7962/293i (antibody, V domains shown)
VH: LVESGGGLVQPGGSLRLSCAASGFTFSSYEMNWVRQAPGKGLEWVSYISSSGSTIYYADSVKGRFTISRDNAKNSLYLQMNSLRAEDTAVYYCARVEQLAPSPYMDVWGKGTTVTVSS
VL: MTQSLDSLTVSLGERATINCKSSQSLLYTSNNKNYLAWYQQKSGQPPKLLIYWASIRDSGVPDRFSGSGSATDFTLTINNLQAEDVAVYFCQQYYKTPLTFGGGTKVEVR
B7: Ab7955 (antibody, V domains shown)
VH: LVESGGGVVRPGRSLRLSCVASGFTFNAYGMHWVRQGPGKGLEWLAVISYEGKTVYYADSVKDRFTISRDNSRNTVSLHLNNLRGEDTAVYYCAKGSASAAVLQHWGQGTLVSVTS
VL: MTQSPGSLAVSLGSRATINCKSSRSLLYRSNNKNYLAWYQQKPGQSPRLLIYWASSRESGVPDRFSGGGSGTSFTLTISSLQAEDVAVYYCQQYFNPPWTFGQGTKVEIK

Key:
histones [1] = test: AtheNA Multi-Lyte ANA, Ab at 6.25 ug/ml
histones [2] = test: AtheNA Multi-Lyte ANA, Ab at 50 ug/ml
histones [3] = test: AtheNA Multi-Lyte ANA, Ab at 12.5 ug/ml
histones [4] = test: AtheNA Multi-Lyte ANA, Ab at 8.35 ug/ml
histones [5] = test: AtheNA Multi-Lyte ANA, Ab at 4.175 ug/ml
histones [6] = test: AtheNA Multi-Lyte ANA, Ab at 16.7 ug/ml
histones [7] = test: AtheNA Multi-Lyte ANA, Ab at 2.088 ug/ml
histones [8] = test: AtheNA Multi-Lyte ANA, Ab at 25 ug/ml
histones [9] = test: AtheNA Multi-Lyte ANA, Ab at 7.075 ug/ml
histones [10] = test: AtheNA Multi-Lyte ANA, Ab at 3.538 ug/ml
histones [11] = test: AtheNA Multi-Lyte ANA, Ab at 28.3 ug/ml
[12] = biological target: sclerosis autoantigen (Scl-70) (UniProt P11387); test: AtheNA Multi-Lyte ANA, Ab at 6.25 ug/ml
[13] = biological target: sclerosis autoantigen (Scl-70) (UniProt P11387); test: AtheNA Multi-Lyte ANA, Ab at 50 ug/ml
[14] = biological target: sclerosis autoantigen (Scl-70) (UniProt P11387); test: AtheNA Multi-Lyte ANA, Ab at 12.5 ug/ml

Chain of sclerosis autoantigen (Scl-70) (P11387 2-765 limits assumed): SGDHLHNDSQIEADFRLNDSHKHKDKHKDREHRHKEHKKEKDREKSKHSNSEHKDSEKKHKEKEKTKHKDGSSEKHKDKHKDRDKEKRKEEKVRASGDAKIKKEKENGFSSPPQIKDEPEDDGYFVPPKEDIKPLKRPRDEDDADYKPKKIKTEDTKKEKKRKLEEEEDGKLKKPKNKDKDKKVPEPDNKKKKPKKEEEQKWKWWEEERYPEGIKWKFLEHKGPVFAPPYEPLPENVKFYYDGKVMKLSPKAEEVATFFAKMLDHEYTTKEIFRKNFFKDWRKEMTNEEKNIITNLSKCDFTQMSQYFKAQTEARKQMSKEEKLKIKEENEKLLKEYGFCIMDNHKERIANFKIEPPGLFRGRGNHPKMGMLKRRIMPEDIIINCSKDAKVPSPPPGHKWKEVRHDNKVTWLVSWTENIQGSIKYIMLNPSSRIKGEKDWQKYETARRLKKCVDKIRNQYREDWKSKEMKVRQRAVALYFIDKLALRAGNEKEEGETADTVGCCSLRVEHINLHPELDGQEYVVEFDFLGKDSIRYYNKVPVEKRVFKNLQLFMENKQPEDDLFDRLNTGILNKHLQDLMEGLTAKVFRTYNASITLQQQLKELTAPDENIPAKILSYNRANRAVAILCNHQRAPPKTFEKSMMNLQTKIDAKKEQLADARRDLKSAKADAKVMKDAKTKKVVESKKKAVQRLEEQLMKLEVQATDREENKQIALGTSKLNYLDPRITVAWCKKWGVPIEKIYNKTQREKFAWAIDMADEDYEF

Binder	AtheNA signal (histones [1])	AtheNA signal (histones [2])	AtheNA signal (histones [3])	also measured
B1	18	31	26	–
B2	–	–	–	AtheNA signal (histones [4]): 114; AtheNA signal (histones [5]): 114; AtheNA signal (histones [6]): 100; AtheNA signal (histones [7]): 93
B3	62	77	69	AtheNA signal (histones [8]): 77
B4	6	15	8	AtheNA signal (histones [8]): 9
B5	–	–	–	AtheNA signal (histones [9]): 115; AtheNA signal (histones [10]): 86; AtheNA signal (histones [11]): 131
B6	3	4	1	–
B7	44	90	60	AtheNA signal [12]: 2; AtheNA signal [13]: 8; AtheNA signal [14]: 3
